Assay results taken from patent US20120329717A1.

Key:
[1] = molecular target: recombinant N-type (Cav2.2) VGCC α1B-b/α2δ1/β3 expressed in Xenopus oocytes (rat; rabbit) (UniProt Q02294); assay: cell-based or functional assay
[2] = molecular target: recombinant N-type (Cav2.2) VGCC α1B-b/α2δ1/β3 expressed in Xenopus oocytes (rat; rabbit), Q02294; assay: cell-based or functional assay
Sequence of recombinant N-type (Cav2.2) VGCC α1B-b/α2δ1/β3 expressed in Xenopus oocytes (rat; rabbit), Q02294 (P13806 27-1106, stated change not applied, chain 2 of 2): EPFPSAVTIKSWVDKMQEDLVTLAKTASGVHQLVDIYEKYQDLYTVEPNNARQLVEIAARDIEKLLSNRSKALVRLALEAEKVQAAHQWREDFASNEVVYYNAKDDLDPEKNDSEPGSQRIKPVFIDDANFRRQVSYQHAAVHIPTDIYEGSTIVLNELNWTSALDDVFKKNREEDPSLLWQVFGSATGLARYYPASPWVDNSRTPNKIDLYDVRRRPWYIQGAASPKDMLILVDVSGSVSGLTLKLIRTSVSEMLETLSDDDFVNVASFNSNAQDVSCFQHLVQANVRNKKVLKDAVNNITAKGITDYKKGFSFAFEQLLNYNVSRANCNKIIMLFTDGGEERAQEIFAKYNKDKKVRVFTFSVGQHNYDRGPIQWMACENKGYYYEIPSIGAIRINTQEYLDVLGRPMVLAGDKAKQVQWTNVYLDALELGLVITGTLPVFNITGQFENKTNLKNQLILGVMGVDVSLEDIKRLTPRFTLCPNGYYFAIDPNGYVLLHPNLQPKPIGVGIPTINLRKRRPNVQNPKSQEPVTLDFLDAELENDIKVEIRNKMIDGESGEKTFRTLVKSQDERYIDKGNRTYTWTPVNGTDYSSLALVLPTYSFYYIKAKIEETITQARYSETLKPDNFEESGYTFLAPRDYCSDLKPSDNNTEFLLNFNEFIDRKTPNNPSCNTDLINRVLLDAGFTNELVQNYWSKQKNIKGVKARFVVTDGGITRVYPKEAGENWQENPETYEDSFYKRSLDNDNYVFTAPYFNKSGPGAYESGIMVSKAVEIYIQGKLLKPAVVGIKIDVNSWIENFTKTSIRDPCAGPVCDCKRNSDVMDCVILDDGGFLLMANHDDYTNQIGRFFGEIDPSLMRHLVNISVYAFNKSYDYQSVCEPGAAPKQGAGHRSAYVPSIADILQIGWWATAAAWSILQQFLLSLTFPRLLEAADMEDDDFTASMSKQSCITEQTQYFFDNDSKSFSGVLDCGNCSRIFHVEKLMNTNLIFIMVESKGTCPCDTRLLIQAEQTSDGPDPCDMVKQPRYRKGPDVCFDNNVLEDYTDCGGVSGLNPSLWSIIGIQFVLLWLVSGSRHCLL
Sequence of recombinant N-type (Cav2.2) VGCC α1B-b/α2δ1/β3 expressed in Xenopus oocytes (rat; rabbit), Q02294 (P54287 whole entry, stated change not applied, chain 3 of 2, further chain): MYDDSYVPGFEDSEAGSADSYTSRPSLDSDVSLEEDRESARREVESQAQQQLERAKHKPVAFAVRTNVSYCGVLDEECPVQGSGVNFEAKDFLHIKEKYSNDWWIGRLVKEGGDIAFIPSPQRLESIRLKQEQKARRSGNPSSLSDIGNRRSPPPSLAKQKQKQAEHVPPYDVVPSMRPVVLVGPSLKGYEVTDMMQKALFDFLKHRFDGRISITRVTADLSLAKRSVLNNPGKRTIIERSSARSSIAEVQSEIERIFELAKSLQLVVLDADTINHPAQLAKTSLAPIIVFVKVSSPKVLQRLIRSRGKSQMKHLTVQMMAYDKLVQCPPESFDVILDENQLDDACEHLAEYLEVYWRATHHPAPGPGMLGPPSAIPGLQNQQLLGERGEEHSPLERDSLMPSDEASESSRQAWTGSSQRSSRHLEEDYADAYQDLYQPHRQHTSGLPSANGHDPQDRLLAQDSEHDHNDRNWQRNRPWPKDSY

Sequence of recombinant N-type (Cav2.2) VGCC α1B-b/α2δ1/β3 expressed in Xenopus oocytes (rat; rabbit) (P13806 27-1106, stated change not applied, chain 2 of 2): as the sequence (P13806 27-1106, stated change not applied, chain 2 of 2) above
Sequence of recombinant N-type (Cav2.2) VGCC α1B-b/α2δ1/β3 expressed in Xenopus oocytes (rat; rabbit) (P54287 whole entry, stated change not applied, chain 3 of 2, further chain): as the sequence (P54287 whole entry, stated change not applied, chain 3 of 2, further chain) above

Molecule	IC50 of inhibition of normalized peak IBa, Xenopus oocytes [1]	time constant of block (τon) at HP -80 mV [1]	time constant of block (τon) at HP -125 mV [1]	IC50 of inhibition of normalized peak IBa, Xenopus oocytes [2]
ω-conotoxin CVIE (peptide)	2.6 nM	31.5 s	38.5 s	–
ω-conotoxin CVIB (from UniProt P58918 1-25) (peptide)	12 nM	–	–	–
CKGKGASCRRTSYDCCTGSCRSGRC (modifications not checked) [ω-conotoxin CVIF]	–	–	–	19.9 nM
